One block for each substance: values may come before it.
Columns and labels:
[1] = biological target: human plasma fibronectin (human); assay: ligand affinity chromatography
[2] = biological target: laminin from the Engelbreth-Holm-Swarm murine tumor (mouse) (UniProt P19137)
collagen type I = collagen type I (UniProt P02452)
[3] = biological target: human plasma fibronectin (human)

Sequence of UniProt P02452 (P02452 162-1218, chain 1 of 2): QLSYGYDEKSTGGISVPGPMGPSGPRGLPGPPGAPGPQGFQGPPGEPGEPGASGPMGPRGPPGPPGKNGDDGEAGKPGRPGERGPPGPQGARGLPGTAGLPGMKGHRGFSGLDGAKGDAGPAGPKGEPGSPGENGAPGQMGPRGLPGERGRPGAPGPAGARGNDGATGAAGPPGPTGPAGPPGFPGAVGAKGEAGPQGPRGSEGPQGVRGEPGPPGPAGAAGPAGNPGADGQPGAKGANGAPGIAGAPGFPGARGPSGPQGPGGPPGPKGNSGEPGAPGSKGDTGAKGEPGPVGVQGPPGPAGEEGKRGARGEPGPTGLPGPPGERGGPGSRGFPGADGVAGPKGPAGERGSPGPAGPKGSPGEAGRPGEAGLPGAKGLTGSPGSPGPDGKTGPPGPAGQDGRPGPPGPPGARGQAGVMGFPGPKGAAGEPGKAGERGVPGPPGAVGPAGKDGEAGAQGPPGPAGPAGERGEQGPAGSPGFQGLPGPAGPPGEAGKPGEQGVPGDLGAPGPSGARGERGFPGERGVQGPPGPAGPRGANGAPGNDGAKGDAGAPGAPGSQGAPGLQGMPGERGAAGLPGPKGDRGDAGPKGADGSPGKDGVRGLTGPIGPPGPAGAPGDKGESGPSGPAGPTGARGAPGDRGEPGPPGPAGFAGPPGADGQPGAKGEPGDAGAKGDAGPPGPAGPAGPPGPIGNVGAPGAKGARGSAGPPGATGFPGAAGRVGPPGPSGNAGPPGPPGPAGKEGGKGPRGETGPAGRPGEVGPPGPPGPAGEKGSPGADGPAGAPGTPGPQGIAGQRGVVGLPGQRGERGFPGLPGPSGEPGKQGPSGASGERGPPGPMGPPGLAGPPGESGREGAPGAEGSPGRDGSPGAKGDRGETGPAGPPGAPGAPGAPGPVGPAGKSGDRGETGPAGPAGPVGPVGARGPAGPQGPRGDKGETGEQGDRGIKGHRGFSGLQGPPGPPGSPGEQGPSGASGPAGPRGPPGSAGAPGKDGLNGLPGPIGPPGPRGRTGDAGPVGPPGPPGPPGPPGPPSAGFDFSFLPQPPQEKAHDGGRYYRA
Sequence of UniProt P02452 (P08123 80-1119, chain 2 of 2, further chain): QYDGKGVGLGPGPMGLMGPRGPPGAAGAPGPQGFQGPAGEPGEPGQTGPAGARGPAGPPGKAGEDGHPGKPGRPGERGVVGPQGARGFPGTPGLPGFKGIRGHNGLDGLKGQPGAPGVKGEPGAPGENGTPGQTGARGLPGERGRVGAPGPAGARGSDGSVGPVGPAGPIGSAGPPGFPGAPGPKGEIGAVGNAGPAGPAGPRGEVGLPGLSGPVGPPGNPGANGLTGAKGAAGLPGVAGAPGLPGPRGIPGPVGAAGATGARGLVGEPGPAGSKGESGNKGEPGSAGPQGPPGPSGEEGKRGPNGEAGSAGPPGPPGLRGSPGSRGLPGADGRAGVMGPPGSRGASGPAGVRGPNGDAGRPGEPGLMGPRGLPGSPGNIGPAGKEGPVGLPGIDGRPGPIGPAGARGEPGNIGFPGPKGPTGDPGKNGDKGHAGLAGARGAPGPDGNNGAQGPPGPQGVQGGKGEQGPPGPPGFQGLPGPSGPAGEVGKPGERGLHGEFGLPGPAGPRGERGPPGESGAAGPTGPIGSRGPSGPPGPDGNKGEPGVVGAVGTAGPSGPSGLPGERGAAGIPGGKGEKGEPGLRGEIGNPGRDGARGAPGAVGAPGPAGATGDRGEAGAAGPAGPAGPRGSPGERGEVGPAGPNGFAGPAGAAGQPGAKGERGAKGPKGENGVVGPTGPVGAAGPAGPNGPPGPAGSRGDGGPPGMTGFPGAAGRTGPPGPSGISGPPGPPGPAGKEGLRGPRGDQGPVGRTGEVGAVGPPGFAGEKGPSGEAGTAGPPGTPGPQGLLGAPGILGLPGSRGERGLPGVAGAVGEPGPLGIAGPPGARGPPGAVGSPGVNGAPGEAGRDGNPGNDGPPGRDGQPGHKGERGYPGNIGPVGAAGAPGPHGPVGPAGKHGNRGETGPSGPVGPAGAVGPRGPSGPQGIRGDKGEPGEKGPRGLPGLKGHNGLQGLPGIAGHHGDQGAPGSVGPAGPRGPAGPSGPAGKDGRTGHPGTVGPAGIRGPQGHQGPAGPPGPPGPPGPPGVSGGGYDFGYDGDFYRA

Table II: inhibition of binding by Ca++ relative to Mg++ (ligand Coll-I,IV) (collagen type I): 15% | Table II: stimulation of binding by Mn++ relative to Mg++ (ligand Coll-I,IV) (collagen type I): 1.4 fold
Substance: integrin VLA-3 (alpha3 beta1) from NCI-H69 small cell lung carcinoma cells (from UniProt P05556 21-798) (receptor)

inhibition of LOX cell attachment to Coll type I by anti-VLA-2 mAb (5E8) (collagen type I): 76%
Substance: integrin VLA-2 (alpha2 beta1) from LOX melanoma cells (from UniProt P17301;P05556) (receptor)

inhibition of LOX cell attachment to Fn by anti-VLA-5 mAb (P1D6) [3]: 85%
Substance: integrin VLA-5 (alpha5 beta1) from LOX melanoma cells (from UniProt P05556 21-798) (receptor)

The remaining lines, values behind:

Substance: integrin VLA-3 (alpha3 beta1) from LOX melanoma cells (from UniProt P05556 21-798) (receptor)
percent of VLA-3 bound to the column [1]: 100%

Substance: integrin VLA-6 (alpha6 beta1) (from UniProt P05556 21-798) (receptor)
inhibition of LOX cell attachment to Lm by anti-VLA-6 mAb (GoH3) [2]: 77% | inhibition of NCI-H69 cell attachment to Lm by anti-VLA-6 mAb GoH3 [2]: 53%
